# Results reported in the nanobody polyreactivity screen of Harvey et al. (2022).
# Assay: yeast display, Sf9 membrane polyspecificity reagent, FACS + sequencing; frameworks hold sequencing errors
# Summary of the method: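 Polyreactivity labels are assigned by the sorting gate from which each nanobody was recovered. The gates were low and high (top ~1%), set on anti-HA fluorescence for expression and streptavidin fluorescence for reagent binding. Before sorting, galactose-induced (36–48 hours) yeast display cells were stained for 1 hour at 4 °C with 10% biotinylated, detergent-solubilized Sf9 membrane reagent.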
row,Sequence,polyreactivity (PSR sort gate)
1,QVQLVESGGGLVQAGGSLRLSCAASGRTFSKYAMGWYRQAPGKERELVAAITDGRGDTYYADSVKGRFTISRDNEKNTVYLQMNSLKPEDTAVYYCAADPGYSLYEYWGQGTQVTVSS,low polyreactivity
2,QVQLVESGGGLVQAGGSLRLSCAASGFIFVSYAMGWDRQAPGKERELVATITWGGGSTYYADSVKGRFTISRDNAKNTVYLQMNSLKPVDTAVYYCAADYPYSPIFDRYVEYEYWGQGTQVTVSS,low polyreactivity
3,QHHLVESGGGLVQAGGSLRLSCAASGRPLQGYAMGWYRQAPGKHRELVAAITWSGGSTYYADSVKGRFTISRDKAKNTVYLQMNSLKPEDTAVYYCATDDDSARFDYWGQGTQVTVSS,low polyreactivity
4,QVQLVESGGGLVQAGGSLRLSCAASGSTFRVNAMGWYRQAPGKERELVAAIRSSGGTTYYADSVQGRFTISRDNAKNTVYLQMNSLKPEDTAVYYCAAEGYRSWRGLRSRYYYWGQGTQVTVSS,high polyreactivity
5,QVQLVESGGGLVQAGGSLRLSCAASGLIFAWYAMGWYRQAPGKERELVATISWNGDRTYYADSVKGRFTISRDNAKNTVYLQMNSLKPEDTAVYYCAARFGSGFNYWGQGTQVTVSS,high polyreactivity
6,QVQLVESVGGLVQAGGSLRLSCASSGFIFATNTMGCYRQAPGKERALVAAMSRSGGSTYYADSVKGRFTISRDNAKNTVYLQMNSLKPEDTAVYYCAADVRLRSTRARFDYWGQGTQVTVSS,high polyreactivity
7,QVQHVESGGGLVQAGGSLRLSCAASGSTFRYYTMGWYRQAPGKERELVADITIGGSTYYADSVKGRFTISRDNAKNTVYLQMNSLKPEDTAVYYCAARSTGGRIFATGVAYDYWGQGTQVTVST,low polyreactivity
8,QVQLVESGGGLVQAGGSLRLSCAASGRTSYYYAMGWSRQAPGKERELVAAISRSGGRTYYADSVKGRFTISRDNAKNTVYLQMNSLKPEDTAVYYCAADPRSYDTGRMDYWGQGTQVTVSS,high polyreactivity
9,QDQLVESGGGLVQAGGSLRLSCAASGFIFDDNAMGWSRQAPGKERELVAAITSGGGSTYYAVSVKGRFTISRDNAKNTVYLQMNSLKPEDTAVYYCNAVPSQHDEFDYWGQGTQVTVSS,low polyreactivity
10,QVQLVESGGGLVQAGGSLRLSCAASGRILGDYAMGWYIQAPGKERELVAAISSGGTTYYADSVKGRFTISRDNAKNTVYLQMNSLKPEDTAVYYCAALTSTLPAYGYWGQGTQVTVSS,low polyreactivity
11,QVQLVESGGGLVQAGGSLRLSCAASGSTFWLYAMGRYRPAPGKERELVASISSRGGSTYYADSVKGRFTISRDNAKNTVYLQMNSLKPEDTAVYYCAAKDIRYDDDYWGQGTQVTVSS,low polyreactivity
12,QVQLVESGGGLVQAGGSLRLSCAASGYIFKYNAMGWYIQAPGKERELVAAISGRGGSTYYADSVKGRFTISRDNAKNTVYLQMNSLKPEDTAVYYCNADYQARRYNYWGQGTQVTVSS,high polyreactivity
13,QVQLVESGGGLVQAGGSRRLTCAASGFTFEYYAMGWYRQAPGTERELVAAISYSGSSTYYADSVKGRFTISRDNAKNTVYLQMNSLKPEDTAVYYCAARAVSRRFDYWGQGTQVTVSS,high polyreactivity
14,QVQLVESGGGLVQAGGSLRLSSAASGSTFYQYAMGWYRQAPGKERELVAAISWDSGSTYYADSVKGRFTISRDNAKNTVYLQMNSLKPEDTAVYYCAASWYGYYDGYAVEYDYWGQGTQVTVSS,low polyreactivity
15,QVQLVESGGGLVQAGGSLRLSCAASGLIFYRYAMGRYRQAPRKERELVAAISSSGGSTYYADSVKGRFTISRDNAKNTVYLQMNSLKPEDTAVYYCSARPSTHGYKYGYWGQGTQVTVSS,high polyreactivity
16,QVQLVESGGGLVQAGGSLRLSCASSGSIFAFNTLGWYRQAPGKERELVAAINSGGSTYYADSVKGRFTISRDNAKNTVYLQMNSLKPEDTAVYYCNARSYGIVVEYDYWGQGTQVTVSS,low polyreactivity

row,Sequence,polyreactivity (PSR sort gate)
1,QVQLVESGGGLFQAGGSLRLSCAASGFTFARYAMGRSRTAPAKERELVARISWSGGSTYYADSVKGRFTISRDNAKNTVYLLMYSLKTEDTEVYYCAADGWYYRYPRDDYWGQGTQETVSS,low polyreactivity
2,QVQLVESGGGLVQAGGSLRLSCAASGKIFFRYTLGWYRQAPGKERELVAAISASGGSTYYADSVKGRFTISRDNAKNTVYLQMNSLKPEDTSVYYCAARILHYTSEYYYWGQGTQVTVSS,low polyreactivity
3,QVQLVESGGGLVQAGGSLRLSCAASGFTLYRYAMGWYIQAPGKERELVAAISKRGASSYYADSVKGRFTISRDNAKNTVYLQMNSLKPEDTAVYYCAATISRAYKPVKGHYYLGMDYWGQGTQVTVSS,high polyreactivity
4,QVQLVESGGRLVQAGGSLRLLCAASGLILHKYAMGWYRQAPGKERELVASINSGANTNYADSVKGRFTISRDNAKNTVYLQMNSLKPEDTAVYYCNADPGFRSGDYGYSSFDYGGQGTQVTVSS,low polyreactivity
5,QVQLVESGGGLVQAGGSLRLSCAASGRTFYPYAMGWYRQAPGKARELVASINWSGASTYYADSVKGRFTISRDNAKNTVYLQMNSLKPEDTAVYYCAARYTPRRYYYWGQGTHVTVSS,high polyreactivity
6,QVQLVESGGGLVQAGGSLSLRCAASGGTFAPYAMGWYRQAPGTERELDAAISWSGGSTYYADSVKGLFTISRDNAKISVYLQMNSLKPEDTAVYYCAGRLTRGIYSTYYYWGQGTQGTVSS,high polyreactivity
7,QVQLVESGGGLVQAGGSLRLSCAASGRIFTTYAMGWYRQAPGKERELVAAISRSGGSTYYADSVKGRFTISRDNAKNTVYLQMNSLKPEDTAVYYCAAVPTSNSFRSSFYYWGQGTEVTVSS,high polyreactivity
8,QVQLVESGGGLGQAGGSLRLICAASGFIFRYNAMGWYRQAPGKERELVAGISRSGGRTYYADSVKGRFTISRDNAKNTVYLQMNSLKPEDTAVYYCNAEWVGGAGGYYYWGQGTQVTVSS,low polyreactivity
9,QVQLVESGGGLVQAGGSLRLSCAASGRIFTSYAKGWYRQAPGKERELVAAISRSGGSTYYADSVKGRFTISRDNAKNTVYLQMHSLKPEDTALYYCAKARVVAGYDYWGQGTQVTVSS,high polyreactivity
10,QVQLVESGGGLVQAGVSLRLSCAASARSFAWKAMVWYRQAPGKERELVAAITWSGGSTYYADSVKGRFTISRDNGKNTVYFQLNSLKQEDTAVYYCNKLYPYYATHTTRGLDYWGQGTQVTVSS,high polyreactivity
11,QVQLVESGGGLVQAGGSLRLSCAASGRIFGYNAMGWYRHAPGTERELVAAITNGGSTNYADSVKGRFTISRDNAKNTVYLQMNSLKPEDTAVYYCAADRGGLRWFWQVLYDYWGQGTQVTVSS,low polyreactivity
12,QVQLVESGGGLFKAGGSLRLSCAASGFIFYFYNMAWYRQAPGKERELVAAISKSGTSTYYAASVKGRFTISRDNAKNTVYLQMNSLKPEDPAVYYCNKVRRANFDYWGQGTQVTVSS,high polyreactivity
13,QVQLVESGGGLVQAGGSLRLSCAASGRTFRWYTMGWYRQAPGKEREFVAAITWSGSSTDYADSVKGRFTISRDNAKNTVYLQMNSLKPEDTAVYYCAAENRRSRDDYWGQGTQVTVSS,high polyreactivity
14,QVQLVESGGCLVQAGGSLRLSCAASRRIFNYYAMGWYRQAPGKERELVAAINSGGSTYADSVKGRFTISRDNAKNTVYLQMNSLKPEDTAVYYCAKDGQLLSGRERPSGYDHWGQGTQVTVSS,low polyreactivity
15,QVQLVESGGGLVQAGGSLRLSCAASGSTFRYNALGWYRQAPGKERELVAAINYRGGSTYYADSVKGRFTISRDNAKNTVYLQMNSLKPEDTAVYYCNAVLPLAKYEYDSWGHGTQVTVSS,high polyreactivity
16,QVQLVESGGGLVQAGGILRLSCAASGSIFAGYAMGWYRQAPGKERELVAVITWRTDITYADSVKGRFTISRDNAKNTDYLHMNSLKPDDTAVYYCAADSDSTTRLFGDEYWGQGTQVTVSS,low polyreactivity
